The supplement of paper PMC10724198
± gives the standard deviation of the averaged measurements.

Tested on: Saccharomyces cerevisiae
Test: protein stability index of tFT-peptide fusion (C-terminal peptide) (PSI (0-1 scale)); higher = more stable (slower turnover)
Details: genetic background: wild type; temperature: 30 C
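Also: PSI is a weighted mean of sequencing reads over stability bins, variants kept only with over 10 reads, mCherry proximal and sfGFP distal, peptide attached via GGGS linker.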

Sequence	protein stability index
HTANYILPLIHI	0.635 ± 0.044
PILFLGGSMGER	0.676 ± 0.011
SEIFTNALLISI	0.651 ± 0.026
LGCVDRMGRVFG	0.704 ± 0.079
CPSRPPALPPPE	0.66835 ± 0.00049
SLSPLLVILANL	0.613 ± 0.05
NFNRKTNGVFRS	0.693 ± 0.059
TDLSPFPALFSL	0.766 ± 0.15
PRRARPLALVFH	0.6 ± 0.033
SGNALSGVIRNC	0.783 ± 0.045
LRPPPAAHSLGP	0.645 ± 0.012
FKTLIRKEQESE	0.754 ± 0.013
GGPAWGRVGMYW	0.666 ± 0.047
ACWGFFIAGVRV	0.598 ± 0.056
KFRFPVDLIFET	0.73 ± 0.015
RGTWAVGGGRGG	0.671 ± 0.065
PSLSVPERSPSL	0.7 ± 0.041
SVPPRPLALSLL	0.76 ± 0.026
CLAVPFSFRLVW	0.613 ± 0.041
EKKEHNHKVKYN	0.626 ± 0.026
GFWGSRTSGSIP	0.7335 ± 0.007
APPPPARDLPPR	0.721 ± 0.017
GPCRVSLSFFFF	0.577 ± 0.06
LPDSHHQTMGVF	0.711 ± 0.055
ISSGRRFRAGAE	0.703 ± 0.046
PARTSAPPSPLI	0.686 ± 0.0075

Sequence	protein stability index
FRTPASLSLPLS	0.676 ± 0.021
STSHSFGVLIAS	0.662 ± 0.0094
PLFSLVSLLLPI	0.628 ± 0.036
GWAFGVRGMIKK	0.74 ± 0.043
PHPTTPPAPRPR	0.728 ± 0.0095
PHAPCPRPSVTV	0.625 ± 0.086
GATGGAWGVWAG	0.676 ± 0.019
WLPSSLPPIVHH	0.662 ± 0.018
PPAPFLLNPVPP	0.727 ± 0.015
FQSSSKSRPRPA	0.669 ± 0.057
LEVFSGNQSVLH	0.645 ± 0.094
QHHPRTTPHRPS	0.714 ± 0.0097
PPCPPPPAPPPP	0.687 ± 0.044
CLREYGGRGGWE	0.706 ± 0.028
GWDCKGNDCWNG	0.693 ± 0.055
GGGNGGTGCDWG	0.629 ± 0.018
FVQSMGVGLGWG	0.694 ± 0.026
HWGRGGRSGGDR	0.697 ± 0.025
TLPSRSPAPLPH	0.643 ± 0.021
ICSQLVVAWEGV	0.714
YVWCINSARLVG	0.587 ± 0.01
GWCAPLGLLLVL	0.539 ± 0.031
PPSPPLPPLPPP	0.653 ± 0.0084
PGSLVLSVVDLV	0.683 ± 0.056
LSALSLFLFFLR	0.58 ± 0.046
GADTSRSYRIGL	0.757 ± 0.0085

Sequence	protein stability index
FLYPPAHPLLPP	0.7 ± 0.024
RTTERLTRWEFG	0.686 ± 0.03
GGAGGHCSHEWS	0.728 ± 0.039
NSTTQKKEQKQI	0.711 ± 0.043
VWLAGVMVGRFQ	0.5575 ± 0.0039
QRLQVLIGYDRR	0.691 ± 0.039
ISFGSVFSGFFH	0.7354 ± 0.0014
NKRIRKIKKKCK	0.701 ± 0.065
PRPPTSPPSLHP	0.7 ± 0.025
PFPPPHTPLPPS	0.791 ± 0.016
PPNHRAGSWLAR	0.655 ± 0.012
GVPYSPKSHRDH	0.643 ± 0.047
DRGSGRFVRGGL	0.664 ± 0.083
VGERGGIGARSG	0.673 ± 0.021
LFLGSFSRSLWP	0.755 ± 0.015
LSSFFLLPCLSS	0.576 ± 0.021
GGEICPARECGA	0.648 ± 0.042
GGGWCSGYLAGV	0.679 ± 0.056
LGRMCSRITVGV	0.543 ± 0.026
VPFYSPPCYSCL	0.628 ± 0.04
MCVGGGCGRGGA	0.719 ± 0.14
WIRRWVGVEGPL	0.707 ± 0.079
RSLGLGGRGFWG	0.715 ± 0.099
LPPPLLPTPMAP	0.661 ± 0.09
PIRAITQRSDGG	0.682 ± 0.045
LSGRQKLNMSIR	0.682 ± 0.029

Sequence	protein stability index
RLATRPILDLPP	0.519 ± 0.026
AARYSRSPRTCF	0.6507 ± 0.0059
STGLDPAAGAHL	0.657 ± 0.06
FPPPPRPSSPLL	0.693 ± 0.024
CSVFFFMGFLFA	0.511 ± 0.13
MGGVGGLCGMWA	0.683 ± 0.036
LVIWSFYSEGIV	0.52 ± 0.017
APPPAFLPPPPA	0.729 ± 0.048
LRKTNQKIRSFK	0.614 ± 0.037
PNSPRCAIASPL	0.702 ± 0.046
GDFFVGLEWRDI	0.622 ± 0.13
PPNPNEPTQTPA	0.711 ± 0.013
GVLRPLVGALGM	0.609 ± 0.0083
PGYFGHVKLSCS	0.646 ± 0.023
LLLVGGVSSWTV	0.67 ± 0.014
GLRYGLALARPF	0.65 ± 0.034
SRPLSSPSPPPS	0.723 ± 0.043
SIKNTQRFKIRN	0.663 ± 0.034
SCQISVRLHVSH	0.612 ± 0.016
CASGKVCVRFCW	0.683 ± 0.033
IGSLCTPVCQCS	0.607 ± 0.019
ARLSHLQSLRFI	0.5476 ± 0.0012
RCSYIGSAGSFF	0.732 ± 0.024
GGVRGRRLLGGR	0.7 ± 0.046
LLGRWVAGSRGG	0.746 ± 0.017
SAVVPACIPKCE	0.694 ± 0.035

Sequence	protein stability index
YRSEEFSGESGW	0.769 ± 0.11
GKDSSTASNRYT	0.688 ± 0.027
NPPCPYPPLRPR	0.595 ± 0.044
PPPPGPSSPHPP	0.707 ± 0.041
HVSPSPYPPGYP	0.697 ± 0.026
YPLLPSERDVKA	0.728 ± 0.023
AMSLWFGFFHFV	0.555 ± 0.018
APPPPPPDPPLP	0.685 ± 0.011
NFGLYGAPFTLG	0.665 ± 0.041
VRHLGAIPQLSG	0.637 ± 0.095
GGARESGRVEQV	0.676 ± 0.011
SPSPHSPHPTPH	0.738 ± 0.085
LPRASQFLLPVP	0.651 ± 0.065
ASYVFVVEGGGG	0.609 ± 0.018
NNYPHSEKCLKE	0.643 ± 0.009
WAAWYPGEHPVP	0.755 ± 0.12
SAPCHAHHLPYQ	0.73 ± 0.026
GWCGGLWRFGWG	0.723 ± 0.092
VRSCFPVGMVWR	0.72087 ± 0.00045
LPSTQSPPPPLP	0.705 ± 0.077
PLSLAPPPLPPY	0.671 ± 0.061
VRDRTSRGMRPA	0.6945 ± 0.0043
VWGGLAVVTGWA	0.612 ± 0.073
LLDLCSNLLRSF	0.757 ± 0.11
PPPPPPPPPHSP	0.769 ± 0.01
EILQDRAVSKGR	0.697 ± 0.039

Sequence	protein stability index
HPDPSPPTKPPP	0.68 ± 0.031
IFWGFSFRGGGG	0.667 ± 0.012
VGGVGEWCLVRL	0.6746 ± 0.0046
SPPPHSTPSSTG	0.712 ± 0.054
FCLSPGYHSQLC	0.692 ± 0.023
KRKHHKREKKKK	0.677 ± 0.042
FSGLNWLLCHSK	0.704 ± 0.015
GSSVSSVWGGVG	0.629 ± 0.022
TVILQRNPKIIV	0.652 ± 0.058
RAAIPAHPFVSR	0.676 ± 0.027
PHPSATPTPVPP	0.7001 ± 0.0017
RKKKKKLKKKTE	0.66 ± 0.082
WGGGRGLRVVGG	0.733 ± 0.092
GQMDGGMGGKVI	0.582 ± 0.062
PADSRGNSPPPQ	0.675 ± 0.055
GIHLAPVCASSP	0.71 ± 0.035
VLLSFLHLTASS	0.606 ± 0.03
VFPLWLRRPFPF	0.695 ± 0.041
GEGRGLCNLVAG	0.65 ± 0.025
SFASGFFVVKDF	0.658 ± 0.031
PPPTHQLAVLSP	0.6413 ± 0.0062
TSYRNNKAKNQS	0.756 ± 0.01
FNTCCQNTWKVK	0.677 ± 0.15
PPSHSPRPLSFL	0.653 ± 0.08
IAGMFSLKFGVP	0.714 ± 0.082
GLRHCLLHRTCQ	0.599 ± 0.0079

Sequence	protein stability index
LLFVVSLPSFPC	0.636 ± 0.13
GSVSLLASLMCS	0.55596 ± 0.00023
QTNAEPPSERVT	0.655 ± 0.083
LRAPPPPAQPFV	0.694 ± 0.012
DAAVQSGGRVAG	0.481 ± 0.03
PKLSKLLQHSNV	0.658 ± 0.048
VRVRPAVRSGPE	0.616 ± 0.006
VQEEGYYLHSSL	0.699 ± 0.021
LLPPPHHANHTA	0.6915 ± 0.0027
LGVFVAFGGFGV	0.605 ± 0.048
VWGGLGGGVGRA	0.668 ± 0.014
PLLEGRRRKSGG	0.635 ± 0.02
CAVPTCSRVPIV	0.601 ± 0.078
NLCPLPPPLLTS	0.675 ± 0.035
SSPPWPILHSPP	0.6952 ± 0.0014
ERPQTKPCQTPL	0.728 ± 0.038
LLPRLRHPSRGK	0.73 ± 0.15
PNCTLVDSCWSI	0.699 ± 0.022
ALYLFHAPRTPP	0.637 ± 0.014
SRHLALPPPRSF	0.702 ± 0.045
STFYSALRVGTR	0.668 ± 0.019
PVPPPPPSLHPP	0.636 ± 0.023
PSPFPPPSHPSP	0.695 ± 0.0041
SLWTDALFLCLT	0.727 ± 0.19
PLPPPFLHLPPP	0.683 ± 0.036
VVVLVGGGWVCV	0.51 ± 0.035

Sequence	protein stability index
FGDTYICKPFWG	0.765 ± 0.033
PPALPPCRSRLV	0.72 ± 0.049
AHSAPGHPHDFP	0.664 ± 0.046
SPPPLPPTPPPL	0.7135 ± 0.0055
RRLSGGNLLLLA	0.5914 ± 0.0018
CPRPHVLPLAYF	0.646 ± 0.014
SYVAERVMSRMV	0.65 ± 0.0087
LACGWCVAVYRG	0.644 ± 0.049
YLEDRGTSGSVQ	0.676 ± 0.054
PQTPANDDGDPN	0.642 ± 0.041
SPKDKARMQKQS	0.602 ± 0.063
AAGSVFAEGYTG	0.686 ± 0.042
TGFGSLWCRSSG	0.743 ± 0.062
RSCGKAYNLLPL	0.683 ± 0.052
GDRRRVFGSEQR	0.662 ± 0.088
LWCDTRIDMSRH	0.737 ± 0.038
VNCAYCRERKRD	0.7209 ± 0.0031
HLTVSRIRLISK	0.658 ± 0.079
PPPPHDLLTPPS	0.736 ± 0.0079
RRPSRLLGPERI	0.717 ± 0.025
